Experimental data published in article PMC12722041, “The low complexity linker of DNAJB6b is key to its anti-amyloid function” (QRB Discovery, 2025).

Molecular target: the molecule itself
Assay: dynamic light scattering; fresh linker sample after dialysis from 4 M urea into 20 mM sodium phosphate, 0.2 mM EDTA, pH 8.0; 25 μM stock

B1: DNAJB6b (76–186), the 110-residue low complexity linker of DNAJB6b (domain or fragment, UniProt O75190-2 76-186, looked up)
chain: GGGGGSHFDSPFEFGFTFRNPDDVFREFFGGRDPFSFDFFEDPFEDFFGNRRGPRGSRSRGTGSFFSAFSGFPSFGSGFSSFDTGFTSFGSLGHGGLTSFSSTSFGGSGMG
notes: also called JB6 linker; linker peptide
Question: Does B1 bind?
Answer: Result: binds
